Measured values reported in the supplement of paper PMC6757056.
± gives the standard deviation of the averaged measurements.

B1: library; a variant is named by its letters at N, in order (parent)
chain: GCUGUCACCGGUGCUUGGUACGUUAUAUUCAGCCGGUCUGAUGAGUCUNNNNNNAGACGAAACAGC

Experiments:
(6R,S)-folinic acid [1] = variants of: B1; test: normalized RNA/DNA level without ligand (relative to sTRSVctl = 100) (log10 (% of sTRSVctl)); HEK293T overexpressing SLC46A1; higher = less ribozyme self-cleavage, higher mRNA level; settings: without (6R,S)-folinic acid; ligand present: no
In short: (§1)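 Ribozyme switch library plasmids linked to reporters were introduced into HEK293T cells at 4 µg per 6-well well, with ligand, if any, added 1 h before. Total RNA was extracted with EDTA 72 h later, reverse-transcribed, amplified, barcoded and sequenced. RNA level was computed from RNA over DNA reads relative to a spiked-in non-cleaving sequence or the top sequences, then scaled and log-transformed. The top set was 25 sequences, values were ×100 and log10, and the cutoff was ≥100 DNA reads.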

(6R,S)-folinic acid [2] = variants of: B1; test: normalized RNA/DNA level with ligand (relative to sTRSVctl = 100) (log10 (% of sTRSVctl)); HEK293T overexpressing SLC46A1; ligand concentration (+) RNA-Seq: 6 mM; higher = less ribozyme self-cleavage, higher mRNA level; settings: with (6R,S)-folinic acid; ligand present: yes
In short: as §1

| Variant | normalized RNA/DNA level without ligand (log10) ((6R,S)-folinic acid [1]) | normalized RNA/DNA level with ligand (log10) ((6R,S)-folinic acid [2]) |
| --- | --- | --- |
| UUCGAU | 1.954 ± 0.0023 | 2.02 ± 0.033 |
| UUCGAA | 1.947 ± 0.018 | 2 ± 0.027 |
| UUCGAC | 1.994 ± 0.0022 | 2.02 ± 0.037 |
| GUCUGU | 2.016 ± 0.0056 | 2.06 ± 0.027 |
| GUCUGA | 2.05 ± 0.021 | 2.05 ± 0.038 |
| UUCUUA | 2.032 ± 0.02 | 2.02 ± 0.081 |
| AUCUGA | 2.021 ± 0.016 | 2.02 ± 0.058 |
| AUCUGU | 2.004 ± 0.0032 | 2.06 ± 0.056 |
| AUCUGC | 2.06 ± 0.028 | 2.05 ± 0.052 |
| GUCUUA | 2.03 ± 0.025 | 2.034 ± 0.013 |
| AUCUCA | 2.02 ± 0.022 | 2.018 ± 0.0082 |
| AUCUCU | 2.02 ± 0.023 | 2.021 ± 0.0047 |
| AUCUCC | 2.04 ± 0.0049 | 2.03 ± 0.064 |
| AUCCUC | 2.1 ± 0.022 | 2.02 ± 0.025 |
| AUCCUU | 2.004 ± 0.01 | 2.02 ± 0.032 |
| AUCCUG | 1.992 ± 0.0066 | 2.02 ± 0.042 |
| AUCCUA | 1.987 ± 0.0057 | 2.01 ± 0.079 |
| GUCCUA | 1.994 ± 0.015 | 2.02 ± 0.043 |
| GUCCUC | 2.024 ± 0.02 | 2.05 ± 0.048 |
| GUCCUG | 2.02 ± 0.034 | 2.01 ± 0.021 |
| GUCCUU | 2.005 ± 0.01 | 2.008 ± 0.019 |
| AUCGUG | 1.906 ± 0.0026 | 2.01 ± 0.026 |
| AUCGUA | 1.982 ± 0.008 | 1.993 ± 0.013 |
| AUCGUC | 2.106 ± 0.011 | 2.06 ± 0.027 |

| Variant | normalized RNA/DNA level without ligand (log10) ((6R,S)-folinic acid [1]) | normalized RNA/DNA level with ligand (log10) ((6R,S)-folinic acid [2]) |
| --- | --- | --- |
| AUCGUU | 2.043 ± 0.0096 | 2.01 ± 0.036 |
| CUCCUC | 2.06 ± 0.057 | 1.99 ± 0.053 |
| CUCCUA | 2.02 ± 0.023 | 2.01 ± 0.033 |
| CUCCUU | 2.014 ± 0.016 | 2 ± 0.027 |
| CUCCUG | 2.07 ± 0.016 | 2.064 ± 0.014 |
| AUCGAA | 1.974 ± 0.0042 | 2 ± 0.02 |
| AUCGAU | 1.98 ± 0.025 | 2.02 ± 0.031 |
| UUCUGA | 2.016 ± 0.012 | 2.032 ± 0.0073 |
| UUCUGU | 2.03 ± 0.023 | 2.047 ± 0.0083 |
| AUCCGA | 1.998 ± 0.0056 | 2.023 ± 0.0052 |
| AUCCGU | 2.023 ± 0.011 | 2.01 ± 0.027 |
| AUCCGC | 2.054 ± 0.019 | 2.032 ± 0.005 |
| AUCCGG | 2.0408 ± 0.002 | 2.05 ± 0.023 |
| UUCGUG | 1.81 ± 0.027 | 1.99 ± 0.067 |
| UUCGUC | 2.1 ± 0.024 | 2.06 ± 0.068 |
| UUCGUA | 1.96 ± 0.025 | 1.97 ± 0.02 |
| UUCGUU | 2.009 ± 0.013 | 1.98 ± 0.042 |
| AUCUAA | 2.0002 ± 0.0016 | 2.01 ± 0.042 |
| AUCUAC | 2.013 ± 0.0088 | 2.03 ± 0.039 |
| AUCUAU | 2.0163 ± 0.0016 | 2.03 ± 0.041 |
| AUCUAG | 1.974 ± 0.013 | 2.021 ± 0.0074 |
| UUCUAU | 1.994 ± 0.0097 | 2.05 ± 0.04 |
| UUCUAC | 2.03 ± 0.029 | 1.98 ± 0.061 |
| CUCCGU | 2.042 ± 0.018 | 2.06 ± 0.044 |

| Variant | normalized RNA/DNA level without ligand (log10) ((6R,S)-folinic acid [1]) | normalized RNA/DNA level with ligand (log10) ((6R,S)-folinic acid [2]) |
| --- | --- | --- |
| CUCCGA | 2.06 ± 0.024 | 2.01 ± 0.071 |
| GUCGGG | 1.998 ± 0.011 | 2.05 ± 0.051 |
| GUCGGA | 1.997 ± 0.0032 | 2.02 ± 0.045 |
| GUCGGC | 2.004 ± 0.0028 | 2.03 ± 0.025 |
| GUCGGU | 2.018 ± 0.0045 | 2.06 ± 0.027 |
| UUCUCA | 2.019 ± 0.003 | 2.04 ± 0.025 |
| UUCUCC | 2.083 ± 0.014 | 2.02 ± 0.038 |
| UUCUCU | 2.06 ± 0.032 | 2.05 ± 0.054 |
| UUCUCG | 1.944 ± 0.0051 | 2.02 ± 0.056 |
| GUCGCG | 1.96 ± 0.026 | 1.996 ± 0.0077 |
| GUCGCU | 2.048 ± 0.0053 | 2.002 ± 0.02 |
| GUCGAG | 1.947 ± 0.0022 | 2 ± 0.036 |
| GUCGAA | 1.9847 ± 0.0012 | 2.02 ± 0.026 |
| CUCUCA | 2.05 ± 0.015 | 2.02 ± 0.057 |
| CUCUCU | 2.025 ± 0.017 | 2.019 ± 0.0069 |
| CUCUCC | 2.1 ± 0.025 | 2.07 ± 0.022 |
| CUCUCG | 2.05 ± 0.014 | 2.014 ± 0.0035 |
| GUCUCC | 2.032 ± 0.015 | 2.024 ± 0.0098 |
| GUCUCA | 2.0197 ± 0.0003 | 2.01 ± 0.027 |
| GUCUCU | 2.0436 ± 0.00093 | 2.03 ± 0.044 |
| UUCCUA | 2.022 ± 0.0051 | 2.033 ± 0.011 |
| UUCCUU | 2.02 ± 0.017 | 2.034 ± 0.018 |
| UUCCUC | 2.096 ± 0.011 | 2.062 ± 0.02 |
| UUCCGC | 2.03 ± 0.026 | 2.01 ± 0.039 |

| Variant | normalized RNA/DNA level without ligand (log10) ((6R,S)-folinic acid [1]) | normalized RNA/DNA level with ligand (log10) ((6R,S)-folinic acid [2]) |
| --- | --- | --- |
| UUCCGG | 2.025 ± 0.006 | 2.03 ± 0.031 |
| UUCCGU | 2.0373 ± 0.0012 | 2.05 ± 0.048 |
| CUCUGA | 2.067 ± 0.012 | 2.046 ± 0.0084 |
| CUCUGG | 2.04 ± 0.021 | 2.04 ± 0.028 |
| CUCUGC | 2.02 ± 0.025 | 2.03 ± 0.027 |
| CUCUGU | 2.0266 ± 0.0016 | 2.037 ± 0.0081 |
| GUCCGC | 2.07 ± 0.011 | 2.045 ± 0.0035 |
| GUCCGU | 2.02 ± 0.021 | 2.022 ± 0.012 |
| UUCGGU | 1.962 ± 0.013 | 2 ± 0.021 |
| UUCGGA | 1.961 ± 0.0071 | 2.024 ± 0.0051 |
| UUCGGG | 1.86 ± 0.024 | 2.01 ± 0.052 |
| CUCGCC | 2.1 ± 0.027 | 2.07 ± 0.054 |
| CUCGCG | 2.038 ± 0.016 | 2.03 ± 0.038 |
| UUCGCU | 1.981 ± 0.014 | 1.99 ± 0.026 |
| UUCGCC | 2.017 ± 0.0095 | 2.01 ± 0.025 |
| UUCGCG | 1.91 ± 0.029 | 1.968 ± 0.0034 |
| UUCGCA | 1.988 ± 0.016 | 2 ± 0.048 |
| CUCGAA | 1.994 ± 0.009 | 1.988 ± 0.018 |
| CUCGAC | 2.017 ± 0.0083 | 2.01 ± 0.02 |
| CUCGAU | 1.99 ± 0.0044 | 1.991 ± 0.0061 |
| AUCGGG | 1.923 ± 0.017 | 2.05 ± 0.047 |
| AUCGGC | 2.054 ± 0.013 | 2.02 ± 0.043 |
| AUCGGU | 1.94 ± 0.02 | 1.96 ± 0.032 |
| CUCUAA | 1.997 ± 0.017 | 2.01 ± 0.044 |

| Variant | normalized RNA/DNA level without ligand (log10) ((6R,S)-folinic acid [1]) | normalized RNA/DNA level with ligand (log10) ((6R,S)-folinic acid [2]) |
| --- | --- | --- |
| CUCUAU | 2.012 ± 0.0028 | 2.03 ± 0.049 |
| CUCUAC | 2.0423 ± 0.0006 | 2.04 ± 0.023 |
| CUCUAG | 2.001 ± 0.019 | 2.02 ± 0.083 |
| AUCGCC | 2.041 ± 0.014 | 2 ± 0.053 |
| AUCGCA | 2.01 ± 0.024 | 2 ± 0.032 |
| AUCGCG | 1.926 ± 0.013 | 2.02 ± 0.019 |
| GUCUAA | 1.978 ± 0.0082 | 1.991 ± 0.014 |
| GUCUAG | 1.97 ± 0.028 | 2.0363 ± 0.0013 |
| GUCUAC | 2.004 ± 0.0042 | 2.02 ± 0.027 |
| GUCGUC | 2.02 ± 0.03 | 2.02 ± 0.034 |
| GUCGUU | 2.029 ± 0.018 | 2.02 ± 0.056 |
| GUCGUG | 1.9677 ± 0.0013 | 2.04 ± 0.029 |
| CUCGUC | 2.15 ± 0.022 | 2.12 ± 0.035 |
| CUCGUU | 2.0737 ± 0.0011 | 2.0492 ± 0.0012 |
| CUCGUA | 2.004 ± 0.016 | 1.98 ± 0.046 |
| CUCGUG | 1.9917 ± 0.0012 | 2.013 ± 0.018 |
| CUCGGC | 2.05 ± 0.027 | 2.04 ± 0.034 |
| CUCGGG | 2.0341 ± 0.00097 | 2.07 ± 0.046 |
| CUCGGU | 2.03 ± 0.034 | 2.02 ± 0.028 |
| CUCGGA | 2.044 ± 0.0022 | 2.0131 ± 0.00036 |
